# Data reported in IntAct's records for PubMed 24130456.
# B1: Ribosomal RNA-processing protein 7 (Saccharomyces cerevisiae), P25368 (parent)
# chain: MGIEDISAMKNGFIVVPFKLPDHKALPKSQEASLHFMFAKRHQSSNSNESDCLFLVNLPLLSNIEHMKKFVGQLCGKYDTVSHVEELLYNDEFGLHEVDLSALTSDLMSSTDVNEKRYTPRNTALLKFVDAASINNCWNALKKYSNLHAKHPNELFEWTYTTPSFTTFVNFYKPLDIDYLKEDIHTHMAIFEQREAQAQEDVQSSIVDEDGFTLVVGKNTKSLNSIRKKILNKNPLSKHENKAKPISNIDKKAKKDFYRFQVRERKKQEINQLLSKFKEDQERIKVMKAKRKFNPYT
# partner: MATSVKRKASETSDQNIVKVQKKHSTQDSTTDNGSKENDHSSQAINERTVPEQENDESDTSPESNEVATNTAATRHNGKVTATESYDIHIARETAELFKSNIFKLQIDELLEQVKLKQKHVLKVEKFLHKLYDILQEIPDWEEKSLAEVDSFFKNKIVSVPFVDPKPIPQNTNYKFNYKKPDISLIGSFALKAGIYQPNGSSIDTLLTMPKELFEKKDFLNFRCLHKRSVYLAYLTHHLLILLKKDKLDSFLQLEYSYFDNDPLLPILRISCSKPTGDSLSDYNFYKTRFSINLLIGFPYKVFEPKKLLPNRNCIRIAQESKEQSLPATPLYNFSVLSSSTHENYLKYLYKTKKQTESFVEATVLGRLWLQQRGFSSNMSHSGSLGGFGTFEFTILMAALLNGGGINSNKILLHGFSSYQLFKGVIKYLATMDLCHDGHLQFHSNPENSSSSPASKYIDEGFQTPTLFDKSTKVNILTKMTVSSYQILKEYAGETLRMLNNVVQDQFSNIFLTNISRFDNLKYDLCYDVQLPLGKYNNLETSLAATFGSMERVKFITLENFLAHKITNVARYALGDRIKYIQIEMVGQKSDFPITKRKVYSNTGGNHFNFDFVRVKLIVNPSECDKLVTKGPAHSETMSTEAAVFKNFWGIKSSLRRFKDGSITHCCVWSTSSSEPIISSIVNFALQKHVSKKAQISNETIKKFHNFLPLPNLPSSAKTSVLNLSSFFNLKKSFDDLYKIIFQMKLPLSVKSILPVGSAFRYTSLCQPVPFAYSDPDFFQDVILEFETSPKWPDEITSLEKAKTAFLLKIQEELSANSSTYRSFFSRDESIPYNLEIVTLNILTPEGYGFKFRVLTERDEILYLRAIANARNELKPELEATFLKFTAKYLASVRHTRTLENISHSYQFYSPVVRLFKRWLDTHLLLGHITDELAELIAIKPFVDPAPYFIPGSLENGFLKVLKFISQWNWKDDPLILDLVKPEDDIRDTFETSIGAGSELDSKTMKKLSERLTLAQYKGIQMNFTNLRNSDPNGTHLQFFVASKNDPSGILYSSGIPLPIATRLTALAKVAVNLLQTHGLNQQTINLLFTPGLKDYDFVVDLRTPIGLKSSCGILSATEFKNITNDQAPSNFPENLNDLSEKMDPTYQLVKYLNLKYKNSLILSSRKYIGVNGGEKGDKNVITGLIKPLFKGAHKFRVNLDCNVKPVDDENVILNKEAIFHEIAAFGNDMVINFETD
# Variants of: B1
# Settings: with utp22_yeast UTP22, P53254
row,effect of a mutation on the interaction,Variant
1,disrupting interaction strength,F38D
